The chains are these.
B1: Tyrosine-protein phosphatase non-receptor type 23 (Mus musculus), Q6PB44 (parent)
chain: MEAVPRMPMIWLDLKEAGDFHFQSAVKKFVLKNYGENPEAYNEELKKLELLRQNAIRVARDFEGCSVLRKYLGQLHYLQSRVPMGSGQEAAVAVTWTEIFSGKSVSHEDIKYEQACILYNLGALHSMLGAMDKRVSEEGMKVSCTHFQCAAGAFAYLREHFPQAFSVDMSRQILTLNVNLMLGQAQECLLEKSMLDNRKSFLVARISAQVVDYYKEACRALENPDTASLLGRIQKDWKKLVQMKIYYFAAVAHLHMGKQAEEQQKFGERVAYFQSALDKLNEAIKLAKGQPDTVQDALRFAMDVIGGKYNSAKKDNDFIYHEAVPALDTLQPVKGAPLVKPLPVNPTDPAVTGPDIFAKLVPMAAHEASSLYSEEKAKLLREMLAKIEDKNEVLDQFMDSMQLDPETVDNLDAYNHIPPQLMEKCAALSVRPDTVKNLVQSMQVLSGVFTDVEASLKDIRDLLEEDELQEQKLQETLGQAGAGPGPSVAKAELAEVRREWAKYMEVHEKASFTNSELHRAMNLHVGNLRLLSGPLDQVRAALPTPALTPEDKAVLQNLKRILAKVQEMRDQRVSLEQQLRELIQKDDITASLVTTDHSEMKKLFEEQLKKYDQLKVYLEQNLAAQDNVLRALTEANVQYAAVRRVLSELDQKWNSTLQTLVASYEAYEDLMKKSQEGKDFYADLESKVATLLERAQSICRAQEAARQQLLDRELKKKAPPPRPTAPKPLLSRREEGEAVEAGDTPEELRSLPPDMMVGPRLPDPFLGTTAPLHFSPGPFPSSTGPATHYLSGPLPPGTYSGPTQLMQPRAAVPMAPATVLYPAPAYTSELGLVPRSSPQHGIVSSPYAGVGPPQPVVGLPSAPPPQLSGPELAMTVRPATTTVDSVQAPISSHTAPRPNPTPALPQPCFPVPQPVPQSVPQPQPLPVPYTYSIGTKQPLPAPYTYSIGTKQHLTGPLPQHQFPPGIPTGFPVPRTGPQAQAQPQPQPQPQPQPQPQPQPQPQPQSQSQPQPQPQPQPQRPAFGPQPTQQPLPFQHPHLFPSQAPGILPPPPPTPYHFTPQPGVLGQPPPTLHTQLYPGPSQDPLPPHSGALPFPSPGPPHPHPTLAYGPAPSPRPLGPQATPVSIRGPPPASQPTPSPHLVPSPAPSPGPGPVPSRPPTAEPPPCLRRGAAAADLLSSSPESQHGGTQPPGGGQPLLQPTKVDAAEGRRPQALRLIEQDPYEHPERLQQLQQELEAFRGQLGDAGALDAIWRELQEAQEHDARGRSIAIARCYSLKNRHQDVMPYDSNRVVLRSGKDDYINASCVEGLSPYCPPLVATQAPLPGTAADFWLMVHEQKVSVIVMLVSEAEMEKQKVARYFPTERGQPMVHGALSVALSSIRTTETHVERVLSLQFRDQSLKRSLVHLHFPTWPELGLPDSPGNLLRFIQEVHAHYLHQRPLHTPIVVHCSSGVGRTGAFALLYAAVQEVEAGNGIPELPQLVRRMRQQRKHMLQEKLHLKFCHEALVRHVEQVLQRHGVPPPGKPVASVNISQKNHLPQDSQDLVLGGDVPISSIQATIAKLSIRPLGGLDSPAASLPGLVEPPGLPPASLPESTPVPSSSPPPLSSPLPEAPQPEEEPSVPEAPSLGPPSSSLELLASLTPEAFSLDSSLRGKQRMSKQNFLQAHNGQGLRAAQPTDDPLSLLDPLWTLNKT
partner: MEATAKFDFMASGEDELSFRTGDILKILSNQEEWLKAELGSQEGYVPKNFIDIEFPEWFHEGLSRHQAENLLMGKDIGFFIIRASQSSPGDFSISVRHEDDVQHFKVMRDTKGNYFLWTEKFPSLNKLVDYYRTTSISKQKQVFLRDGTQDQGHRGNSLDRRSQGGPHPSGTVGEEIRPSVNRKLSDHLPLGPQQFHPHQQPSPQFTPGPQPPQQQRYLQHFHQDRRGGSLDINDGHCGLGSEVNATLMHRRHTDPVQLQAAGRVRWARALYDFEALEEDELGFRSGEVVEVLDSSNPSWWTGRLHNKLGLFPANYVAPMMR

In this experiment the parent is B1. Conditions: with grap2_mouse Grap2, O89100.
Turning to K727A, the “effect of a mutation on the interaction” value was “decreasing interaction strength”. As for K727H, the “effect of a mutation on the interaction” value is on record as “decreasing interaction strength”. To R722A belongs “decreasing interaction”. To P720A;R722A belongs “disrupting interaction”. To K727A;P728A belongs “disrupting interaction strength”.

The values above are taken from IntAct's records for PubMed 19523899.
